The supplement of paper PMC10724198
± gives the standard deviation of the averaged measurements.

How the values were obtained:
Saccharomyces cerevisiae [1] = assay: protein stability index of tFT-peptide fusion (C-terminal peptide) (PSI (0-1 scale)); higher = more stable (slower turnover)
Method: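 MPS profiling in S. cerevisiae of the tFT-X12 degron library: putative degron peptides plus stable controls, 12 aa, fused to the C-terminus of a sfGFP-mCherry timer. Cells are FACS-sorted into 8 mCherry/sfGFP bins and deep-sequenced. PSI runs from 0 (unstable) to 1 (stable). Backgrounds are wild type, das1Δ and doa10Δ at 30 °C, and wild type, das1Δ, cdc34-1 and cdc53-1 at 37 °C; 2-3 technical replicates each.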

Saccharomyces cerevisiae [2] = assay: as above; conditions: genetic background: wild type; temperature: 30 C
[3] = genetic background: cdc34-1, temperature: 37 C
[4] = genetic background: cdc53-1, temperature: 37 C
[5] = genetic background: das1 deletion, temperature: 30 C
[6] = genetic background: das1 deletion, temperature: 37 C
[7] = genetic background: doa10 deletion, temperature: 30 C
[8] = genetic background: wild type, temperature: 30 C
[9] = genetic background: wild type, temperature: 37 C
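Further: PSI is a weighted mean of sequencing reads over stability bins, variants kept only with over 10 reads, mCherry proximal and sfGFP distal, peptide attached via GGGS linker.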

Row | Sequence | protein stability index (Saccharomyces cerevisiae [1]; [3]) | protein stability index (Saccharomyces cerevisiae [1]; [4]) | protein stability index (Saccharomyces cerevisiae [1]; [5]) | protein stability index (Saccharomyces cerevisiae [1]; [6]) | protein stability index (Saccharomyces cerevisiae [1]; [7]) | protein stability index (Saccharomyces cerevisiae [1]; [8]) | protein stability index (Saccharomyces cerevisiae [1]; [9]) | protein stability index (Saccharomyces cerevisiae [2])
1 | RCCWWNAQAVWR | 0.725 ± 0.043 | 0.7494 ± 0.0045 | 0.638 ± 0.029 | 0.752 ± 0.0039 | 0.655 ± 0.016 | 0.631 ± 0.032 | 0.73 ± 0.023 | 0.578 ± 0.15
2 | WCGLFCRSVFVV | 0.28221 ± 0.00025 | 0.363 ± 0.0043 | 0.263 ± 0.033 | 0.406 ± 0.0015 | 0.0996 ± 0.0021 | 0.11 ± 0.023 | 0.108 ± 0.0023 | 0.158 ± 0.072
3 | VCSCLVLVFCCC | 0.232 ± 0.018 | 0.222 ± 0.018 | 0.232 ± 0.036 | 0.318 ± 0.0068 | 0.207 ± 0.025 | 0.237 ± 0.015 | 0.285 ± 0.024 | 0.298 ± 0.037
4 | LFTRWSILFKLF | 0.335 ± 0.075 | 0.357 ± 0.058 | 0.559 ± 0.032 | 0.694 ± 0.052 | 0.0889 ± 0.025 | 0.0908 ± 0.012 | 0.136 ± 0.015 | 0.132 ± 0.0026
5 | APLLPPALALTC | 0.533 ± 0.029 | 0.516 ± 0.038 | 0.389 ± 0.034 | 0.5268 ± 0.0035 | 0.3512 ± 0.00062 | 0.407 ± 0.028 | 0.484 ± 0.02 | 0.505 ± 0.025
6 | LFFFVFFVLFSV | 0.2271 ± 0.00037 | 0.204 ± 0.0057 | 0.218 ± 0.013 | 0.3319 ± 0.0017 | 0.304 ± 0.013 | 0.211 ± 0.023 | 0.303 ± 0.016 | 0.259 ± 0.075
7 | SISVQCSMLRVL | 0.456 ± 0.036 | 0.47 ± 0.0037 | 0.389 ± 0.048 | 0.482 ± 0.0086 | 0.303 ± 0.02 | 0.294 ± 0.018 | 0.387 ± 0.038 | 0.331 ± 0.0089
8 | FLLLVFGLLIDS | 0.183 ± 0.004 |  | 0.246 ± 0.067 | 0.413 ± 0.022 | 0.188 ± 0.017 | 0.222 ± 0.03 | 0.379 ± 0.11 | 0.338 ± 0.016
9 | RFFVRRVRVAVL | 0.786 ± 0.036 | 0.817 ± 0.019 | 0.553 ± 0.055 | 0.687 ± 0.0081 | 0.386 ± 0.025 | 0.382 ± 0.031 | 0.578 ± 0.048 | 0.406 ± 0.0052
10 | VTMTPSLCFSYS | 0.688 ± 0.017 | 0.684 ± 0.023 | 0.388 ± 0.029 | 0.668 ± 0.013 | 0.364 ± 0.0098 | 0.396 ± 0.01 | 0.632 ± 0.016 | 0.464 ± 0.018
11 | GFLWFCGVPVGW | 0.695 ± 0.026 | 0.7385 ± 0.0044 | 0.609 ± 0.017 | 0.72 ± 0.027 | 0.613 ± 0.031 | 0.613 ± 0.012 | 0.707 ± 0.018 | 0.571 ± 0.2
12 | LRNYKCLRLLIC | 0.293 ± 0.009 | 0.476 ± 0.0082 | 0.394 ± 0.028 | 0.545 ± 0.022 | 0.0736 ± 0.0054 | 0.0688 ± 0.012 | 0.0753 ± 0.012 | 0.0682 ± 0.096
13 | RGAVLLPSLWVV | 0.659 ± 0.025 | 0.7044 ± 0.0028 | 0.577 ± 0.027 | 0.7355 ± 0.0068 | 0.356 ± 0.033 | 0.381 ± 0.022 | 0.551 ± 0.0061 | 0.483 ± 0.061
14 | MYESIRILVNKV | 0.62 ± 0.015 | 0.707 ± 0.016 | 0.62 ± 0.022 | 0.697 ± 0.015 | 0.226 ± 0.0021 | 0.326 ± 0.038 | 0.491 ± 0.02 | 0.457 ± 0.052
15 | FLLYRFSLVGCF | 0.0567 ± 0.0082 | 0.108 ± 0.02 | 0.123 ± 0.031 | 0.194 ± 0.011 | 0.0828 ± 0.021 | 0.108 ± 0.032 | 0.189 ± 0.011 | 0.172 ± 0.026
16 | GFLAVTVACVWR | 0.0513 ± 0.0097 | 0.136 ± 0.0021 | 0.154 ± 0.018 | 0.258 ± 0.013 | 0.13 ± 0.014 | 0.145 ± 0.037 | 0.213 ± 0.026 | 0.255 ± 0.048
17 | PPPLCSTCIRCC | 0.197 ± 0.035 | 0.206 ± 0.038 | 0.224 ± 0.027 | 0.354 ± 0.0097 | 0.175 ± 0.0021 | 0.205 ± 0.019 | 0.274 ± 0.013 | 0.293 ± 0.0083
18 | SDLQVMKLRSVC | 0.717 ± 0.048 | 0.742 ± 0.045 | 0.619 ± 0.025 | 0.714 ± 0.026 | 0.185 ± 0.007 | 0.191 ± 0.013 | 0.456 ± 0.021 | 0.398 ± 0.067
19 | FFGFYLKFVWCG | 0.431 ± 0.062 | 0.4683 ± 0.0021 | 0.391 ± 0.024 | 0.516 ± 0.0079 | 0.146 ± 0.015 | 0.152 ± 0.019 | 0.258 ± 0.025 | 0.21 ± 0.019
20 | AFYLCLYFMPVS | 0.454 ± 0.026 | 0.548 ± 0.036 | 0.371 ± 0.028 | 0.503 ± 0.012 | 0.358 ± 0.032 | 0.367 ± 0.029 | 0.52 ± 0.0093 | 0.4375 ± 0.0033

Row | Sequence | protein stability index (Saccharomyces cerevisiae [1]; [3]) | protein stability index (Saccharomyces cerevisiae [1]; [4]) | protein stability index (Saccharomyces cerevisiae [1]; [5]) | protein stability index (Saccharomyces cerevisiae [1]; [6]) | protein stability index (Saccharomyces cerevisiae [1]; [7]) | protein stability index (Saccharomyces cerevisiae [1]; [8]) | protein stability index (Saccharomyces cerevisiae [1]; [9]) | protein stability index (Saccharomyces cerevisiae [2])
21 | GKGVFGGLFFLV | 0.667 ± 0.029 | 0.741 ± 0.019 | 0.623 ± 0.027 | 0.755 ± 0.013 | 0.182 ± 0.0027 | 0.211 ± 0.021 | 0.465 ± 0.011 | 0.294 ± 0.0074
22 | FFPSFGLFLCPV | 0.431 ± 0.01 | 0.471 ± 0.0067 | 0.366 ± 0.036 | 0.5001 ± 0.0015 | 0.381 ± 0.013 | 0.357 ± 0.031 | 0.4685 ± 0.0018 | 0.409 ± 0.027
23 | WVSFFILYCVYR | 0.274 ± 0.016 | 0.345 ± 0.024 | 0.253 ± 0.04 | 0.445 ± 0.017 | 0.23 ± 0.0055 | 0.237 ± 0.018 | 0.378 ± 0.011 | 0.232 ± 0.03
24 | KRARVIWKLVVV | 0.59 ± 0.033 | 0.528 ± 0.008 | 0.408 ± 0.024 | 0.583 ± 0.006 | 0.23 ± 0.01 | 0.287 ± 0.015 | 0.4876 ± 0.0039 | 0.445 ± 0.0046
25 | VSPPPLSPPLSR | 0.677 ± 0.014 | 0.7238 ± 0.0031 | 0.6712 ± 0.0055 | 0.709 ± 0.012 | 0.686 ± 0.0078 | 0.673 ± 0.0092 | 0.688 ± 0.014 | 0.701 ± 0.0022
26 | DLQTVGLTRFIV | 0.62 ± 0.031 | 0.7362 ± 0.0061 | 0.621 ± 0.022 | 0.714 ± 0.011 | 0.149 ± 0.015 | 0.193 ± 0.0044 | 0.353 ± 0.031 | 0.236 ± 0.071
27 | SWSLRLSTIFSV | 0.609 ± 0.11 | 0.664 ± 0.016 | 0.612 ± 0.025 | 0.667 ± 0.0072 | 0.189 ± 0.0053 | 0.219 ± 0.018 | 0.352 ± 0.022 | 0.367 ± 0.0041
28 | YVVYLQVCWMRS | 0.072 ± 0.025 | 0.206 ± 0.076 | 0.134 ± 0.019 | 0.23 ± 0.0061 | 0.0911 ± 0.019 | 0.104 ± 0.035 | 0.186 ± 0.024 | 0.227 ± 0.0044
29 | RGGVLYVSIRCK | 0.282 ± 0.019 | 0.335 ± 0.0034 | 0.228 ± 0.032 | 0.397 ± 0.0054 | 0.186 ± 0.015 | 0.233 ± 0.037 | 0.386 ± 0.023 | 0.341 ± 0.053
30 | KSSIGVWTLLIR | 0.282 ± 0.012 | 0.3 ± 0.026 | 0.337 ± 0.026 | 0.454 ± 0.022 | 0.564 ± 0.02 | 0.334 ± 0.035 | 0.423 ± 0.022 | 0.494 ± 0.016
31 | LSLPTPLPSPPA | 0.656 ± 0.044 | 0.695 ± 0.041 | 0.457 ± 0.027 | 0.629 ± 0.015 | 0.449 ± 0.019 | 0.456 ± 0.017 | 0.591 ± 0.0092 | 0.48 ± 0.022
32 | VYWRGLHLQRLL | 0.681 ± 0.036 | 0.7679 ± 0.0013 | 0.652 ± 0.033 | 0.775 ± 0.024 | 0.26 ± 0.0053 | 0.29 ± 0.028 | 0.4753 ± 0.0016 | 0.418 ± 0.05
33 | TVHVIVVCRELA | 0.4698 ± 0.0034 | 0.518 ± 0.015 | 0.39 ± 0.03 | 0.52 ± 0.017 | 0.201 ± 0.014 | 0.244 ± 0.025 | 0.381 ± 0.007 | 0.3271 ± 0.0022
34 | LVSVLLLFWFLF | 0.4146 ± 0.00025 | 0.368 ± 0.014 | 0.358 ± 0.05 | 0.515 ± 0.037 | 0.344 ± 0.021 | 0.324 ± 0.013 | 0.475 ± 0.017 | 0.394 ± 0.069
35 | SFVLLSSFLVFV | 0.249 ± 0.016 | 0.272 ± 0.042 | 0.262 ± 0.02 | 0.39553 ± 9.9e-06 | 0.275 ± 0.0036 | 0.241 ± 0.014 | 0.355 ± 0.0082 | 0.323 ± 0.013
36 | VLLCASPMLAVV | 0.343 ± 0.028 | 0.356 ± 0.022 | 0.289 ± 0.024 | 0.423 ± 0.0087 | 0.249 ± 0.0027 | 0.297 ± 0.011 | 0.39 ± 0.0039 | 0.393 ± 0.03
37 | GFVSLFRLFIRL | 0.241 ± 0.073 | 0.218 ± 0.02 | 0.352 ± 0.032 | 0.4652 ± 0.0042 | 0.405 ± 0.024 | 0.25 ± 0.013 | 0.3595 ± 0.0028 | 0.36 ± 0.066
38 | WGRAADRRRRLG | 0.633 ± 0.054 | 0.731 ± 0.039 | 0.628 ± 0.011 | 0.7658 ± 0.0054 | 0.152 ± 0.0034 | 0.207 ± 0.013 | 0.344 ± 0.018 | 0.346 ± 0.025
39 | FFVWLGWGMFYG | 0.547 ± 0.034 | 0.575 ± 0.015 | 0.425 ± 0.025 | 0.561 ± 0.0085 | 0.408 ± 0.0042 | 0.437 ± 0.013 | 0.6044 ± 0.0019 | 0.528 ± 0.054
